# In patent publication US7091311 (GlaxoSmithKline, dated 2006):
# Bridges are numbered along the chain shown (N, C = ends). Where no end group is shown, it is not given here. The star is where a group is joined. Biotin = O=C1N[C@H]2[C@H](CS[C@H]2CCCCC(=O)*)N1
# Target: T1, full length human TPO-R (human, UniProt P40238 26-635)
# T1 sequence (looked up): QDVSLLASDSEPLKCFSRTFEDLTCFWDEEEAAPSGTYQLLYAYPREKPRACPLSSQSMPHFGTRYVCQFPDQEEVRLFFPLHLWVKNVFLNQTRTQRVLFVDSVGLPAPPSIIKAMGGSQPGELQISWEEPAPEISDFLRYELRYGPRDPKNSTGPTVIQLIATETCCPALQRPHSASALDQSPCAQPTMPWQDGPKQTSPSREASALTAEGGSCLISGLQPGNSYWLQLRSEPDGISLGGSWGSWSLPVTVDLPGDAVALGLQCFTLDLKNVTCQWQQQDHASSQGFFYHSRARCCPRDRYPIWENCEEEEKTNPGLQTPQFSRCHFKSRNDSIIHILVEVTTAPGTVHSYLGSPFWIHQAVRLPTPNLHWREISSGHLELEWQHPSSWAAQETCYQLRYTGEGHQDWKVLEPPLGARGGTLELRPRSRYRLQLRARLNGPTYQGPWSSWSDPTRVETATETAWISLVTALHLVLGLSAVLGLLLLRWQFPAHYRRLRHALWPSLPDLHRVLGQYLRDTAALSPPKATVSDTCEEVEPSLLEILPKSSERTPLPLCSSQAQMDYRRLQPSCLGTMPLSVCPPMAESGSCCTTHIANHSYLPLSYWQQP
# Assay: cell-based or functional assay
Binder,EC50 cell proliferation,EC50 microphysiometer
H-IEGPTLRQWLAARA-NH2 [[H]-IEGPTLRQWLAARA-[NH2]],≤ 500 nM,
"CIEGPTLRQWLAARA (also: further groups not given here, also called [drawing CHEM-US-00062]) [[drawing CHEM-US-00030] (SEQ ID NO:185)(SEQ ID NO:185)]",≤ 500 nM,≤ 500 nM
"CIEGPTLRQWLAARAC (cysteine pairing not given here; also: further groups not given here, structure printed only as a drawing) [[drawing CHEM-US-00060] (SEQ ID NO:194)]",≤ 500 nM,

# Target: T2, soluble TPO-R (UniProt P40238 26-491)
# Assay: competition ELISA vs MBP-TPO156
# Protocol: (§1) The amount of alkaline phosphatase in each well was then determined using standard methods.
row,Binder,IC50
1,H-IEGPTLRQWLAARA-NH2 [[H]-IEGPTLRQWLAARA-[NH2]],≤ 500 nM
2,"CIEGPTLRQWLAARA (also: further groups not given here, also called [drawing CHEM-US-00062]) [[drawing CHEM-US-00030] (SEQ ID NO:185)(SEQ ID NO:185)]",≤ 500 nM
3,"CIEGPTLRQWLAARAC (cysteine pairing not given here; also: further groups not given here, structure printed only as a drawing) [[drawing CHEM-US-00060] (SEQ ID NO:194)]",≤ 500 nM

# Target: T2, soluble TPO-R
# Assay: competition ELISA vs MBP-TPO156
# Remark: another data set of the same source
# Protocol: as §1
# (§2) In this example cyclized compounds were subjected to three assays. First, $IC50$ valves were obtained as described above.
row,Binder,IC50
1,"CAAGPTLREWISFC (also: cyclized, mode not given here) [SEQ ID NO:12 cyclized, D - A]",≤ 500 nM
2,"CADGPTLRQWISFC (also: cyclized, mode not given here) [SEQ ID NO:12 cyclized, E - Q]",≤ 500 nM
3,"CPTLREWISFC (disulfide 1-11 (inferred); not fully specified) [SEQ ID NO:12 cyclized, ADG - deletion]",≤ 200000 nM

# Target: T3, soluble TPO-R (UniProt P40238 26-491)
# T3 construct: extracellular domain; Immobilized through anti-HPAP antibody Ab179; also called thrombopoietin receptor; c-mpl
# Assay: competition ELISA vs MBP-TPO156
# Protocol: as §1, §2
row,Binder,IC50
1,"CADGPTLREWIAFC (also: cyclized, mode not given here) [SEQ ID NO:12 cyclized, S - A]",≤ 500 nM

# Target: T2, soluble TPO-R
# Assay: competition ELISA vs MBP-TPO156
# Remark: another data set of the same source
row,Binder,IC50
1,"MVGPTLRSGC (also: further groups not given here, structure printed only as a drawing) [[drawing CHEM-US-00033] (SEQ ID NO:188)(SEQ ID NO:188)]",~200000 nM
2,"CIEGPTLRQWLAARA (also: further groups not given here, also called [drawing CHEM-US-00062]) [[drawing CHEM-US-00030] (SEQ ID NO:185)(SEQ ID NO:185)]",≤ 500 nM
3,"DGPTLREWISFC (also: further groups not given here, structure printed only as a drawing) [[drawing CHEM-US-00037] (SEQ ID NO:189)(SEQ ID NO:189)]",≤ 500 nM
4,"CADGPTLREWISF (also: further groups not given here, structure printed only as a drawing) [[drawing CHEM-US-00031] (SEQ ID NO:186)(SEQ ID NO:186)]",≤ 500 nM
5,"SVQCGPTLRQWLAARNHLS (also: further groups not given here, structure printed only as a drawing) [[drawing CHEM-US-00032] (SEQ ID NO:187)(SEQ ID NO:187)]",≤ 500 nM

# Target: T2, soluble TPO-R
# Assay: equilibrium binding ELISA, MBP-TPO or lacI-peptide tracer
row,Binder,IC50
1,GNADGPTLRQWLEGRRPKN (free synthetic peptide) [G N A D G P T L R Q W L E G R R P K N],≤ 500 nM
2,"GGCADGPTLREWISFCGGK(Biotin) (cysteine pairing not given here, also called AF 12285) [G G C A D G P T L R E W I S F C G G K (Biotin)]",≤ 500 nM
3,GGCADGPTLREWISFCGG (free synthetic peptide) [G G C A D G P T L R E W I S F C G G],≤ 500 nM
4,SIEGPTLREWLTSRTPHS (free synthetic peptide) [S I E G P T L R E W L T S R T P H S],≤ 500 nM
5,TIKGPTLRQWLKSREHTS (free synthetic peptide) [T I K G P T L R Q W L K S R E H T S],≤ 500 nM
6,LAIEGPTLRQWLHGNGRDT (free synthetic peptide) [L A I E G P T L R Q W L H G N G R D T],≤ 500 nM

# Target: T1, full length human TPO-R
# Assay: cell-based or functional assay
# Remark: another data set of the same source
Binder,EC50 cell proliferation,EC50 microphysiometer
"CAAGPTLREWISFC (also: cyclized, mode not given here) [SEQ ID NO:12 cyclized, D - A]",≤ 200000 nM,≤ 200000 nM
"CADGPTLRQWISFC (also: cyclized, mode not given here) [SEQ ID NO:12 cyclized, E - Q]",≤ 500 nM,≤ 200000 nM
"CADGPTLREWIAFC (also: cyclized, mode not given here) [SEQ ID NO:12 cyclized, S - A]",≤ 500 nM,≤ 500 nM
"CPTLREWISFC (disulfide 1-11 (inferred); not fully specified) [SEQ ID NO:12 cyclized, ADG - deletion]",,≤ 200000 nM

# Target: T1, full length human TPO-R
# Assay: cell-based or functional assay
# Remark: another data set of the same source
Binder,EC50 cell proliferation,EC50 microphysiometer
"MVGPTLRSGC (also: further groups not given here, structure printed only as a drawing) [[drawing CHEM-US-00033] (SEQ ID NO:188)(SEQ ID NO:188)]",≤ 200000 nM,
"CIEGPTLRQWLAARA (also: further groups not given here, also called [drawing CHEM-US-00062]) [[drawing CHEM-US-00030] (SEQ ID NO:185)(SEQ ID NO:185)]",≤ 500 nM,≤ 500 nM
"DGPTLREWISFC (also: further groups not given here, structure printed only as a drawing) [[drawing CHEM-US-00037] (SEQ ID NO:189)(SEQ ID NO:189)]",≤ 500 nM,≤ 500 nM
"CADGPTLREWISF (also: further groups not given here, structure printed only as a drawing) [[drawing CHEM-US-00031] (SEQ ID NO:186)(SEQ ID NO:186)]",≤ 500 nM,≤ 500 nM
"SVQCGPTLRQWLAARNHLS (also: further groups not given here, structure printed only as a drawing) [[drawing CHEM-US-00032] (SEQ ID NO:187)(SEQ ID NO:187)]",≤ 500 nM,≤ 500 nM

# Target: T1, full length human TPO-R
# Assay: cell-based or functional assay
# Remark: another data set of the same source
Binder,EC50 cell proliferation,EC50 microphysiometer
"ADGPTLREWISFC-OH (also: further groups not given here) [SEQ ID NO:173 compound, free acid form]",≤ 500 nM,≤ 200000 nM
